Measured values published in PMC3044117.

Molecular target: HA-tagged Patched 1 (Ptc1), expressed in 293T cells (UniProt Q61115)
Assay: pull-down

Sequence of UniProt Q61115 (Q61115 whole entry): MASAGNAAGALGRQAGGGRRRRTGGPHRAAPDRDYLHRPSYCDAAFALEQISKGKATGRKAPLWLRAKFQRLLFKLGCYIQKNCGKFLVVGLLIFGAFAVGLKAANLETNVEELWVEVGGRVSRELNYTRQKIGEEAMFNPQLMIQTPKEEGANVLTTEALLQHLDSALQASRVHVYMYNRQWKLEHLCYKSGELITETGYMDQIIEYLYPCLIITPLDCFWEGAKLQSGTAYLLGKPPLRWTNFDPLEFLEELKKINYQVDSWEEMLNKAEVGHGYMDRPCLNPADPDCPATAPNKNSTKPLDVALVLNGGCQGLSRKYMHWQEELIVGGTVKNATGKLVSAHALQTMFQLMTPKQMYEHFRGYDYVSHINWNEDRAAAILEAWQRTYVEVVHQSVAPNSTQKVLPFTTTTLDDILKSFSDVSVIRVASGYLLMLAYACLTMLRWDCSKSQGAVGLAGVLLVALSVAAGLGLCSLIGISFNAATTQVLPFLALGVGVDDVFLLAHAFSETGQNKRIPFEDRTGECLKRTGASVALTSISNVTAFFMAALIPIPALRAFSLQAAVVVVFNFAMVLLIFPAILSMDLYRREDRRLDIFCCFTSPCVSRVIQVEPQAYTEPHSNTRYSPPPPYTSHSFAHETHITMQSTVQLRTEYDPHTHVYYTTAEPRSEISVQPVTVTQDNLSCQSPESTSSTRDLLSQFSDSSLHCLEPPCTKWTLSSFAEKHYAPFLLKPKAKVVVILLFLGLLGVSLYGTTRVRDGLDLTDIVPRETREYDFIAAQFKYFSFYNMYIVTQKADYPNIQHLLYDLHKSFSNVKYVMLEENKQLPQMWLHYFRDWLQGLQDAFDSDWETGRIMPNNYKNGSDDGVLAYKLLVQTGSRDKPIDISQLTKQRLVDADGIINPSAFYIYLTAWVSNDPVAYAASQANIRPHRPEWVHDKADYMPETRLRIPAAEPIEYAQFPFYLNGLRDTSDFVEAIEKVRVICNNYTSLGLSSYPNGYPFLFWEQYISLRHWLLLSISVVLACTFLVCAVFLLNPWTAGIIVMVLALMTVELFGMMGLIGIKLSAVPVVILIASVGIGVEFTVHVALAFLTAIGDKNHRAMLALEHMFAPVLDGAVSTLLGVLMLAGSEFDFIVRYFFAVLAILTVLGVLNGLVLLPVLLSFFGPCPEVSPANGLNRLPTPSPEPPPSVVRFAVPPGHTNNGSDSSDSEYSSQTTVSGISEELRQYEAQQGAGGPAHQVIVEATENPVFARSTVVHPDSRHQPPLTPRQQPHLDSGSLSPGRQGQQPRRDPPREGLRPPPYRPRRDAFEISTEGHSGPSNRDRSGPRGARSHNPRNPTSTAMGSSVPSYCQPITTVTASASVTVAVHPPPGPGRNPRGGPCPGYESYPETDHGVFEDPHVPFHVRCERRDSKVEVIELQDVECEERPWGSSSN

In the case of “GPC5-AP fusion protein in conditioned medium”, the Kd is reported as 37 nM.
